These results are taken from US20190322984A1 (MUSC FOUNDATION FOR RESEARCH DEVELOPMENT, published 2019).

In this test the target is T1, mouse IL-2Rα on mouse effector CD8+ T cells (mouse, UniProt P01590 22-268).
T1 construct: whole, on cells; also called mIL-2Rα; CD25
T1 sequence (looked up): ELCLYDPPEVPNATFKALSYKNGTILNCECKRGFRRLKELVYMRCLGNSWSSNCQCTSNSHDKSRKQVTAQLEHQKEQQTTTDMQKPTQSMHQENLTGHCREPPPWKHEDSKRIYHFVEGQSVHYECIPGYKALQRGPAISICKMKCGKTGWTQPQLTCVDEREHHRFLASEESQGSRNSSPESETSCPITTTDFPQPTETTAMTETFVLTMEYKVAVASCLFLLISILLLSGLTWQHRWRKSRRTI
Kind of test: flow cytometry, surface IL-2 staining of mIL-2-pulsed polyclonal effector CD8+ T cells. The procedure:
FIGS. 3a-3g—IL-2Rα facilitates sustained IL-2 signaling through creation of an extracellular reservoir and recycling. (a) Presence of IL-2 on the surface of polyclonal T cells depends on IL-2Rα. Polyclonal effector CD8⁺ T cells were pulsed for 2 hours with or without mIL-2. Prior to (and during) the pulse, T cells were incubated with anti-IL-2Rα mAb (PC61). Cells were then washed and stained for surface IL-2. (b) Time course of surface IL-2 on polyclonal T cells after reculture at 37° C. (c) Levels of pSTAT5 in Tc1 cells that were pulsed with IL-2, washed, and recultured at 37° C. with or without anti-IL-2 mAb (clone S4B6 or 1A12). (d) Recycling of IL-2 on effector T cells. Pmel-1 Tc1 cells were incubated with hIL-2 or mIL-2 at 37° C. for 2 hours. As indicated, cells were then acid washed and recultured at 37° C. for 90 minutes in the presence of anti-hIL-2 mAb conjugated to Alexa647. Cells were then washed, fixed, and assayed by flow cytometry. (e) Recycling of IL-2 on pulsed cells while mixed with non-pulsed cells. Pmel-1 Tc1 cells were pulsed with hIL-2 at either 4° C. or 37° C. for 2 hours, and then acid washed. Cells were then mixed with non-pulsed CFSE-labeled Tc1 cells. The mixed cells were recultured at 37° C. for 45 minutes in the presence of anti-hIL-2 mAb conjugated to Alexa647. Cells were then washed, fixed, and assayed by flow cytometry. […]
(In general: A flow cytometer gives signals particle by particle.)

B1: Mouse (m) IL-2 (ligand, UniProt P04351 21-169, looked up)
chain: APTSSSTSSSTAEAQQQQQQQQQQQQHLEQLLMDLQELLSRMENYRNLKLPRMLTFKFYLPKQATELKDLQCLEDELGPLRHVLDLTQSKSFQLEDAENFISNIRVTVVKLKGSDNTFECQFDDESATVVDFLRRWIAFCQSIISTSPQ
notes: Bought recombinant cytokine; used at 200 ng/ml in pulse assays; also called mouse IL-2
With B1, the binding result is on record as “binds”.
